Read-outs that look alike come from different tables or passages of the source.
What was measured:
[1] = biological target: T1, Human-B7H3 His (manufacturer: Acro, CAT: TB73-H52E2) (human, UniProt Q5ZPR3-2 29-245); test: ELISA: Human-B7H3 His coated (0.3 µg/mL), antibody titrated, goat anti-human IgG Fc detection, OD450 (Example 3)
T1 construct: also called human B7H3 protein; B7H3 protein; not shown: His tag
T1 sequence (looked up): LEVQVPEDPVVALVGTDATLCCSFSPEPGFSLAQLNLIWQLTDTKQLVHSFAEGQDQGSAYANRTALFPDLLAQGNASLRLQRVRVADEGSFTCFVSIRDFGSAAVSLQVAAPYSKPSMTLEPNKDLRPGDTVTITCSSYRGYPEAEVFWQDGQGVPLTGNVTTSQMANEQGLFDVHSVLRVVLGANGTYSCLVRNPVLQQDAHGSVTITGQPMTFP
Procedure: (§1) Human-B7H3 His (manufacturer: Acro, CAT: TB73-H52E2, LOT: 2052-21AXF1-YS) was diluted to 0.3 μg/mL with a coating solution (1×PBS, pH7.4), and coated into a 96-well ELISA plate at 100 μL/well overnight at 4° C. The coating solution was poured off. Each well was washed with 1×PBST at 300 μL, washed 4 times with a plate washer, and patted dry on a flat paper. It was blocked with 3% skim milk powder at 300 μL/well, and incubated at 37° C. for 1 h. The blocking solution was poured off, washed 4 times with a plate washer, and patted dry on a flat paper. Negative control and positive control were set up. […] The variable region of the antibody sequence of the positive control consists of SEQ ID NO: 1 and SEQ ID NO: 5, with the constant region of human IgG1 added (SEQ ID NO: 85 and SEQ ID NO: 86). The positive control and antibody were diluted to 10 μg/mL with 3% skim milk powder as the starting concentration, and then diluted by 3-fold gradient (11 gradients in total). A blank well was set up and only the diluent was added. It was incubated at 37° C. for 1 h at 100 μL/well. The liquid in the well was discarded, washed 4 times with a plate washer, and patted dry on a flat paper. Goat anti-human IgG Fc was diluted with 3% skim milk powder at 1:20000, and incubated at 37° C. for 1 h at 100 μL/well. It was washed 6 times with a plate washer, and patted dry on a flat paper. TMB color developing solution was added at 100 μL/well, and wrapped with aluminum foil. Color development was performed at 37° C. in the dark for 8 min. Termination solution 1M HCl was added to terminate the color development reaction at 100 μL/well. Readings were taken at 450 nm on an ELISA reader.

[2] = biological target: T2, Human-TNFR2-His (manufacturer: SINO, CAT: 10417-H08H) (human, UniProt P20333 23-257); test: ELISA: Human-TNFR2-His coated (0.3 µg/mL), antibody titrated, goat anti-human IgG Fc detection, OD450 (Example 2)
T2 construct: Bought protein; also called human TNFR2 protein; TNFR2 protein; not shown: His tag
T2 sequence (looked up): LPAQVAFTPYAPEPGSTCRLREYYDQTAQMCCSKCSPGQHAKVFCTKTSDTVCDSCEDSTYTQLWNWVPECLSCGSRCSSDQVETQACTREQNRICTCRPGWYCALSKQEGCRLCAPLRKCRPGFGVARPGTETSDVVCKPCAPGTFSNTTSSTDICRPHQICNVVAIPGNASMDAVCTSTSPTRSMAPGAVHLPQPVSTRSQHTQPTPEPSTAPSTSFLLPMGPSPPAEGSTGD
Procedure: Human-TNFR2-His (manufacturer: SINO, CAT: 10417-H08H, LOT: LC15NO0412) was diluted to 0.3 μg/mL with a coating solution (1×PBS, pH7.4), and coated into a 96-well ELISA plate at 100 μL/well overnight at 4° C. The coating solution was poured off. Each well was washed with 1×PBST at 300 μL, washed 4 times with a plate washer, and patted dry on a flat paper. It was blocked with 3% skim milk powder at 300 μL/well, and incubated at 37° C. for 1 h. The blocking solution was poured off, washed 4 times with a plate washer, and patted dry on a flat paper. Negative control and positive control were set up. […] The positive control and antibody were diluted to 10 μg/mL with 3% skim milk powder as the starting concentration, and then diluted by 3-fold gradient (11 gradients in total). A blank well was set up and only the diluent was added. It was incubated at 37° C. for 1 h at 100 μL/well. The liquid in the well was discarded, washed 4 times with a plate washer, and patted dry on a flat paper. Goat anti-human IgG Fc was diluted with 3% skim milk powder at 1:20000, and incubated at 37° C. for 1 h at 100 μL/well. It was washed 6 times with a plate washer, and patted dry on a flat paper. TMB color developing solution was added at 100 μL/well, and wrapped with aluminum foil. Color development was performed at 37° C. in the dark for 8 min. Termination solution 1M HCl was added to terminate the color development reaction at 100 μL/well. Readings were taken at 450 nm on an ELISA reader.

[3] = biological target: T1, Human-B7H3 His (manufacturer: Acro, …); test: ELISA: Human-B7H3 His coated (0.3 µg/mL), antibody titrated, goat anti-human IgG Fc detection, OD450 (Example 3); remark: listed apart in the source
Procedure: as §1

[4] = biological target: T2, Human-TNFR2-His (manufacturer: SINO, …); test: bridging ELISA: Human-B7H3 Fc coated (0.5 µg/mL), antibody titrated, then Human-TNFR2-His (0.5 µg/mL), HRP-labeled anti-His detection, OD450 (Example 4); the signal needs both proteins bound at once
Procedure: Human-B7H3 Fc (manufacturer: Acro, CAT: B73-H5253, LOT: 2053b-201XF1-UD) was diluted to 0.5 μg/mL with a coating solution (1×PBS, pH7.4) and coated into a 96-well ELISA plate at 100 μL/well at 4° C. overnight. The coating solution was poured off. Each well was washed with 1×PBST at 300 μL, washed 4 times with a plate washer, and patted dry on a flat paper. It was blocked with 3% skim milk powder at 300 μL/well, and incubated at 37° C. for 1 h. The blocking solution was poured off, washed 4 times with a plate washer, and patted dry on a flat paper. […] Starting at 300 nM, which was used as the initial concentration for 3-fold dilution, a total of 8 gradients were diluted, and a blank well was set up, and only diluent was added. It was incubated at 37° C. for 1 h at 100 μL/well. The liquid in the well was discarded, washed 4 times with a plate washer, and patted dry on a flat paper. Human-TNFR2-His (manufacturer: Sino, CAT: 10417-H08H, LOT: LC12SE2902) was diluted to 0.5 μg/mL, 100 μL was added to each well, and incubated at room temperature for 1 h. The plate was washed 3 times with PBST, and then the HRP-labeled his antibody was diluted with sample diluent at 1:10000, 100 μL was added to each well, and incubated at room temperature for 1 h. It was washed 6 times with a plate washer, and patted dry on a flat paper. TMB color developing solution was added at 100 μL/well, and wrapped with aluminum foil. Color development was performed at 37° C. in the dark for 8 min. Termination solution 1M HCl was added to terminate the color development reaction at 100 μL/well. Readings were taken at 450 nm on an ELISA reader.

[5] = biological target: T2, Human-TNFR2-His (manufacturer: SINO, …); test: flow cytometry, bridging: CHOK1-18.2 cells (human Claudin18.2) + 150 nM antibody + human TNFR2-His, anti-His FITC detection
Procedure: Human TNFR2 protein (SINO, CAT: 10417-H08H) was sequentially added into 96-well plate with 100 μL/well, and after mixing, the 96-well plate was incubated at 4° C. for 1 h. Pre-cooled dilution was added and washed once, centrifuged (3000 rpm, 3 min), and the supernatant was discarded, and the cells were harvested. Fluorescent secondary antibody Anti-6X-his tag antibody (FITC) (manufacturer: abcam, Cat. No.: ab1206, Lot No.: GR3420599-3) was taken and diluted at the used concentration of 1:500. 100 μL of dilution was added to the blank control group, and 100 μL of fluorescent secondary antibody dilution was added to the rest of the sample groups respectively. After incubation for 0.5 h at room temperature and 4° C. protected from light, PBS was added to wash and centrifuged (3000 rpm, 3 min) twice. After discarding the supernatant, 80 μL of the dilution was added and resuspended.

B1: TB-C2 (bispecific antibody, human IgG4 S228P, kappa)
light: DIVMTQSPATLSVTPGDRVSLSCRASQSISDYLHWYQQKSHESPRLLIKYASQSISGIPSRFSGSGSGSDFTLSINSVEPEDVGVYYCQNGHSFPLTFGAGTKLELKRTVAAPSVFIFPPSDEQLKSGTASVVCLLNNFYPREAKVQWKVDNALQSGNSQESVTEQDSKDSTYSLSSTLTLSKADYEKHKVYACEVTHQGLSSPVTKSFNRGEC
heavy: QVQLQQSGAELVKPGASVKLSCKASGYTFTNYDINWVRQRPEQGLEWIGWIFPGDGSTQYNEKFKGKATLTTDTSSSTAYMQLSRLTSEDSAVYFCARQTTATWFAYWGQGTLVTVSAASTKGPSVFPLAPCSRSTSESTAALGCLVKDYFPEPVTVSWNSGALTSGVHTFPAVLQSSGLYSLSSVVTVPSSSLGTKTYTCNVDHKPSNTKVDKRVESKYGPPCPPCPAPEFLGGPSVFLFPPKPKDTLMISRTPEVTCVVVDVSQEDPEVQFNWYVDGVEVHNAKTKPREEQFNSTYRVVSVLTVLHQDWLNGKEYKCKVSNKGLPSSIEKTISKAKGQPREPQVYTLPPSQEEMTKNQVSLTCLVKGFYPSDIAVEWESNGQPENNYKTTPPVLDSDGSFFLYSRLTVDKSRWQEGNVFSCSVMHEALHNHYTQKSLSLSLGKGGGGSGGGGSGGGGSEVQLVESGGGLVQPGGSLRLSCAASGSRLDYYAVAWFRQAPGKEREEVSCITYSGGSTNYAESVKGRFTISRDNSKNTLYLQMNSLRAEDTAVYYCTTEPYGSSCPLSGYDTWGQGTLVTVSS
notes: also called antibody TB-C2
EC50 (read off the curve) [1]: ~2 nM | binding result [2]: binds

B2: TB-D2 (bispecific antibody, human IgG4 S228P, kappa)
light: B1 light
heavy: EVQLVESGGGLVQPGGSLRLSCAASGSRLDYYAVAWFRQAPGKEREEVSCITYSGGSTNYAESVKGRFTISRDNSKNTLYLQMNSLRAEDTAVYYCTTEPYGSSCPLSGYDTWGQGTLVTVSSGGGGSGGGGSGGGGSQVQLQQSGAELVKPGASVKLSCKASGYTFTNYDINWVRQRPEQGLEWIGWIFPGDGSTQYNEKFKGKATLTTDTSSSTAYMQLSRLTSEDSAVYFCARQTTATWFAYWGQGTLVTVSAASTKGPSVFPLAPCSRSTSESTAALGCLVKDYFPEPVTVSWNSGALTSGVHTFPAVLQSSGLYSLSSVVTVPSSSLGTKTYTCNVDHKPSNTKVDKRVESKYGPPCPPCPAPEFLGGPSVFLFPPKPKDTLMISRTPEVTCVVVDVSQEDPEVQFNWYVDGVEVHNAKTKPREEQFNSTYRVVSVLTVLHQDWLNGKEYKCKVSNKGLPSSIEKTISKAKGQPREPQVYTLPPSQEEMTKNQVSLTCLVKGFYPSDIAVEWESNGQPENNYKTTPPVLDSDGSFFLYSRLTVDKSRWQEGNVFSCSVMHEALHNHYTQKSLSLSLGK
notes: also called antibody TB-D2
EC50 (read off the curve) [1]: ~1 nM | binding result [2]: binds

B3: TB-H (bispecific antibody, human IgG1, kappa)
light: EVQLVESGGGLVQPGGSLRLSCAASGSRLDYYAVAWFRQAPGKEREEVSCITYSGGSTNYAESVKGRFTISRDNSKNTLYLQMNSLRAEDTAVYYCTTEPYGSSCPLSGYDTWGQGTLVTVSSGGGGSGGGGSGGGGSDIVMTQSPATLSVTPGDRVSLSCRASQSISDYLHWYQQKSHESPRLLIKYASQSISGIPSRFSGSGSGSDFTLSINSVEPEDVGVYYCQNGHSFPLTFGAGTKLELKRTVAAPSVFIFPPSDEQLKSGTASVVCLLNNFYPREAKVQWKVDNALQSGNSQESVTEQDSKDSTYSLSSTLTLSKADYEKHKVYACEVTHQGLSSPVTKSFNRGEC
heavy: not shown
notes: also called antibody TB-H
EC50 (read off the curve) [3]: ~0.2 µg/mL | binding result [4]: binds

B4: TB-G (bispecific antibody, human IgG1, kappa)
light: DIVMTQSPATLSVTPGDRVSLSCRASQSISDYLHWYQQKSHESPRLLIKYASQSISGIPSRFSGSGSGSDFTLSINSVEPEDVGVYYCQNGHSFPLTFGAGTKLELKRTVAAPSVFIFPPSDEQLKSGTASVVCLLNNFYPREAKVQWKVDNALQSGNSQESVTEQDSKDSTYSLSSTLTLSKADYEKHKVYACEVTHQGLSSPVTKSFNRGECGGGGSGGGGSEVQLVESGGGLVQPGGSLRLSCAASGSRLDYYAVAWFRQAPGKEREEVSCITYSGGSTNYAESVKGRFTISRDNSKNTLYLQMNSLRAEDTAVYYCTTEPYGSSCPLSGYDTWGQGTLVTVSS
heavy: not shown
notes: also called antibody TB-G
binding result [4]: binds

B5: TC-B2 (bispecific antibody, human IgG1, kappa)
light: EIVMTQSPPTLSLSPGERVTLSCKSSQSLLNSGNQKNYLTWYQQKPGQAPRLLIYWASTRESSIPARFSGSGSGTDFTLTISSLQPEDFAVYYCQNNYIYPLTFGGGTKLELKRTVAAPSVFIFPPSDEQLKSGTASVVCLLNNFYPREAKVQWKVDNALQSGNSQESVTEQDSKDSTYSLSSTLTLSKADYEKHKVYACEVTHQGLSSPVTKSFNRGEC
heavy: not shown
E1 Mean FITC-A [5]: 139000

B6: Positive Control (antibody, V domains shown)
VH: QVQLQQSGAELVKPGASVKLSCKASGYTFTNYDINWVRQRPEQGLEWIGWIFPGDGSTQYNEKFKGKATLTTDTSSSTAYMQLSRLTSEDSAVYFCARQTTATWFAYWGQGTLVTVSA
VL: DIVMTQSPATLSVTPGDRVSLSCRASQSISDYLHWYQQKSHESPRLLIKYASQSISGIPSRFSGSGSGSDFTLSINSVEPEDVGVYYCQNGHSFPLTFGAGTKLELK
EC50 (read off the curve) [1]: ~0.2 nM | EC50 (read off the curve) [3]: ~0.3 nM

B7: TB-F (bispecific antibody, human IgG1, kappa)
light: EVQLVQSGAEVKKPGATVKISCKVSGYSITDYLLHWVQQAPGKCLEWMGWIDPEDAKTKYGQKFQSRVTITADTSTDTAYMELSSLRSEDTAVYYCAANSGTGTMDAWGQGTLVTVSSGGGGSGGGGSGGGGSDIVMTQSPATLSVSPGERATLSCKASQNVGSNVDWYQQKPGQSPRVLIYKASIRYTGIPARFSGSGSGTEFTLTISILQSEDFAVYFCMQSKSYPITFGCGTKLEIKGGGGSGGGGSGGGGSDIVMTQSPATLSVTPGDRVSLSCRASQSISDYLHWYQQKSHESPRLLIKYASQSISGIPSRFSGSGSGSDFTLSINSVEPEDVGVYYCQNGHSFPLTFGAGTKLELKRTVAAPSVFIFPPSDEQLKSGTASVVCLLNNFYPREAKVQWKVDNALQSGNSQESVTEQDSKDSTYSLSSTLTLSKADYEKHKVYACEVTHQGLSSPVTKSFNRGEC
heavy: not shown
notes: also called antibody TB-F
EC50 (read off the curve) [3]: ~0.2 µg/mL | binding result [4]: binds

— patent US20260055188A1 (SHENGHE CHINA BIOPHARMACEUTICAL, published 2026)
